In patent US20190338048A1:
Values joined by “and” are separate entries in the source; they are usually repeats but may differ in a detail not shown here. Equal values may be shown once. Read-outs that look alike come from different tables or passages of the source. Each block holds one substance with its values, some of them ahead of it.

What was measured:
[1] = biological target: Pertuzumab kappa light chain Q124E_V133D (L2), N-terminal HA tag; assay: LCCA, SPR of light chain tags
[2] = biological target: Pertuzumab kappa light chain Q124E_V133D (L2), N-terminal HA tag; assay: LCCA, SPR of light chain tags; remark: listed apart in the source
[3] = biological target: Pertuzumab kappa light chain Q124E_V133D (L2), N-terminal HA tag; assay: LCCA, SPR of light chain tags; remark: listed apart in the source
[4] = biological target: CAT-2200 lambda light chain S176K_Y178K (L1), N-terminal FLAG tag; assay: LCCA, SPR of light chain tags
[5] = biological target: CAT-2200 lambda light chain S176K_Y178R (L1), N-terminal FLAG tag; assay: LCCA, SPR of light chain tags
[6] = biological target: CR8071 lambda light chain L1 with E124Q_T131K; assay: SMCA System C: four chains co-expressed, protein A, LC-MS
[7] = biological target: Pertuzumab kappa light chain L135A (L2), N-terminal HA tag; assay: LCCA, SPR of light chain tags
[8] = biological target: Pertuzumab kappa light chain, wild type (L2), N-terminal HA tag; assay: LCCA, SPR of light chain tags
[9] = biological target: Pertuzumab kappa light chain L135A (L2), N-terminal HA tag; assay: LCCA, SPR of light chain tags; remark: listed apart in the source
[10] = biological target: CAT-2200 lambda light chain T116F_S176F (L1), N-terminal FLAG tag; assay: LCCA, SPR of light chain tags
[11] = biological target: Pertuzumab kappa light chain T178F (L2), N-terminal HA tag; assay: LCCA, SPR of light chain tags
[12] = biological target: Recombinant human IL-17A (human) (UniProt Q16552); assay: SPR
[13] = biological target: Recombinant human IL-17A (human) (UniProt Q16552); assay: SPR, IL-17A immobilised, Fab as analyte
[14] = biological target: CR8071 lambda light chain E124Q_T131R (L1 of designs 3971, 3972 and 3987, system C); assay: SMCA: H1, L1, H2, L2 co-expressed, protein A, LC-MS
[15] = biological target: CR8071 lambda light chain L1 E124Q_T131R (designs 3971 and 3972, System C); assay: as above
[16] = biological target: Pertuzumab kappa light chain Q124E_Q160E_T180E (L2), N-terminal HA tag; assay: LCCA, SPR of light chain tags
[17] = biological target: Pertuzumab kappa light chain Q124E_Q160E_T180E (L2), N-terminal HA tag; assay: LCCA, SPR of light chain tags; remark: listed apart in the source
[18] = biological target: Pertuzumab kappa light chain Q124E_Q160E_T180E (L2), N-terminal HA tag; assay: LCCA, SPR of light chain tags; remark: listed apart in the source
[19] = biological target: CAT-2200 lambda light chain S176K_Y178L (L1), N-terminal FLAG tag; assay: LCCA, SPR of light chain tags
[20] = biological target: Recombinant HER2 protein (HER2-ECD) (UniProt P04626); assay: SPR, Fab captured via anti-penta-His, HER2 as analyte
[21] = biological target: Recombinant HER2 protein (HER2-ECD) (UniProt P04626); assay: SPR

Substance: Pertuzumab Fab heavy chain L143R (H2), ABD2-His6 tagged
- H2L2:H2L1 normalized median ratio [1]: 86%
- H2L2:H2L1 normalized median scalar value ln(r1/f1) [1]: 1.84
- H2L2:H2L1 normalized median ratio [2]: 82%
- H2L2:H2L1 normalized median scalar value ln(r1/f1) [2]: 1.53
- H2L2:H2L1 normalized median ratio [3]: 79%
- H2L2:H2L1 normalized median scalar value ln(r1/f1) [3]: 1.3
- H2L2:H2L1 normalized median ratio [4]: 21%
- H2L2:H2L1 normalized median ratio [5]: 14%

Substance: CR8071 heavy chain H1 with L143E_K145T_Q179E
- % H1L1 Pairing [6]: 84.7%
- Change in % H1L1 Pairing with respect to wild type [6]: 36.3%

Substance: CAT-2200 designed Fab heterodimer H1L1: H1 S186R / L1 K129T_S180E
- Change in KD of H1L1 Fab vs wild type [12]: -0.088
- Kd [13]: 0.26 nM

Substance: CAT-2200 designed Fab heterodimer H1L1: H1 L143K / L1 K129T_V133D
- Change in KD of H1L1 Fab vs wild type [12]: -0.09
- Kd [13]: 0.26 nM

Substance: CAT-2200 designed Fab heterodimer H1L1: H1 L143E_K145T_Q179E / L1 E124Q_T131R
- Change in KD of H1L1 Fab vs wild type [12]: -0.14
- Kd [13]: 0.29 nM

Substance: CR8071 heavy chain H1 A139W_L143D_K145T (design 3972, System C)
- % H1L1 Pairing [15]: 92.8%
- Change in % H1L1 Pairing with respect to wild type [15]: 44.4%

Substance: Pertuzumab designed Fab heterodimer H2L2: H2 L45P_L143E_K145T_Q179E / L2 P44F_Q124K_T178R
- Kd [20]: 6 nM

Substance: CAT-2200 designed Fab heterodimer H1L1: H1 Q179K / L1 K129T_S180E
- Change in KD of H1L1 Fab vs wild type [12]: -0.056
- Kd [13]: 0.24 nM

Substance: CR8071 heavy chain H1 with L143D_K145T
- % H1L1 Pairing [6]: 79.7%
- Change in % H1L1 Pairing with respect to wild type [6]: 11.6%

Substance: Pertuzumab designed Fab heterodimer H2L2: H2 Q39E_L143E_K145T_Q179E / L2 Q38R_Q124K_T178R
- Change in KD of H2L2 Fab vs wild type [21]: 0.023
- Kd [20]: 7.4 nM

The next lines start with the values.

- H2L2:H2L1 normalized median ratio [7]: 46%
- H2L2:H2L1 normalized median scalar value ln(r1/f1) [7]: -0.16
- H2L2:H2L1 normalized median ratio [8]: 62%
- H2L2:H2L1 normalized median scalar value ln(r1/f1) [8]: 0.49
- H2L2:H2L1 normalized median ratio [9]: 49%
- H2L2:H2L1 normalized median scalar value ln(r1/f1) [9]: -0.04
- H2L2:H2L1 normalized median ratio [10]: 38%
- H2L2:H2L1 normalized median ratio [11]: 65%
- H2L2:H2L1 normalized median scalar value ln(r1/f1) [11]: 0.62
Substance: Pertuzumab Fab heavy chain L143I_V190F (H2), ABD2-His6 tagged

- % H1L1 Pairing [14]: 92.8% and 99.2%
- Change in % H1L1 Pairing with respect to wild type [14]: 44.4% and 50.8%
Substance: CR8071 heavy chain A139W_L143D_K145T (H1 of designs 3972 and 3987, system C)

- % H1L1 Pairing [14]: 89%
- Change in % H1L1 Pairing with respect to wild type [14]: 40.6%
Substance: CR8071 heavy chain L143D_K145T (H1 of design 3971, system C)

- H2L2:H2L1 normalized median ratio [16]: 96%
- H2L2:H2L1 normalized median scalar value ln(r1/f1) [16]: 3.21
- H2L2:H2L1 normalized median ratio [17]: 87%
- H2L2:H2L1 normalized median scalar value ln(r1/f1) [17]: 1.88
- H2L2:H2L1 normalized median ratio [18]: 91%
- H2L2:H2L1 normalized median scalar value ln(r1/f1) [18]: 2.33
- H2L2:H2L1 normalized median ratio [4]: 9%
- H2L2:H2L1 normalized median ratio [5]: 4%
- H2L2:H2L1 normalized median ratio [19]: 13%
Substance: Pertuzumab Fab heavy chain Q179K (H2), ABD2-His6 tagged

- Kd [20]: 5.8 nM
Substance: Pertuzumab designed Fab heterodimer H2L2: H2 L45P_L124E_K145T_Q179E / L2 P44F_S131R_V133G_S176R

- % H1L1 Pairing [15]: 89%
- Change in % H1L1 Pairing with respect to wild type [15]: 40.6%
Substance: CR8071 heavy chain H1 L143D_K145T (design 3971, System C)

- Change in KD of H2L2 Fab vs wild type [21]: -0.0084
- Kd [20]: 7.9 nM
Substance: Pertuzumab designed Fab heterodimer H2L2: H2 Q39E_L124E_K145T_Q179E / L2 Q38R_S131R_V133G_S176R
